According to patent publication US20260060994A1, “GLYCOSYLATED COMPOSITIONS AND METHODS OF USE” (Cy Biopharma AG, priority 2023, published 2026):

Columns and labels:
Assay type in all cases: biochemical
[1] = Glycosylation of 4-OH-MiPT by GLY enzymes (UDP-glucose), LC-UV/MS; settings: conditions of Examples 1 and 2 repeated for 4-OH-MiPT; estimate from UV peak areas
Method: (§1) The assay conditions were: • 100 mM Tris-HCl, pH 7.4 • 5 mM MgCl2 • 1 mM KCl • 1.25 mM UDP-glucose • 0.5 mM 4-OH-MET • 5% (v/v) DMSO • 0.1 U/uL Fast AP phosphatase • 25% (v/v) GLY enzyme
(§2) Incubation was 24 house at 30° C. Reactions were terminated adding 3 volumes of 75% (v/v) ethanol.
(§3) LC separation was performed using an Agligen 1290 Infinity II UHPLC equipped with a Phenomenex Kinetex XB-C18 column (1.7 um, 100 angstroms, 100×2.1 mm) and 4-HO-MET was detected by absorbance at 210 nm and 268 nm with an Agilent 1260 Infinity II DAD.
(§4) 0.1% Formic acid in water (A) and 0.1% Formic acid in acetonitrile (B) were used as the mobile phases for the elution gradient, with a flow rate of 0.4 ml/min. Retention time for 4-HO-MET using this type of instrument under these condition was 2.6 min. The system was coupled to an Ultivo Triple Quadrupole MS. To verify the presence of possible glycoside products, as SIM (Selected Ion Monitoring) method was used on the MS to analyse for the m/z 381 (theoretical mass to chart ratio of 4-HO-MET-glucoside) and m/z 219 (theoretical mass to charge ratio of 4-HO-MET).
(§5) The enzymes giving the additional peak putatively corresponding to the 4-HO-MET-β-D-glucoside are listed below. […] A correct quantification of the product is not possible without a standard for the specific molecule. However, based on the assumption that the ratio area-to-concentration in the UV chromatograms will be similar to 4-HO-MET, estimates of the relative abundance for the additional peak are also given, expressed as percentage of converted 4-HO-MET. GLY enzymes hits are ranked according to their estimated conversion efficiency.
(§6) The experiments described in Examples 1 and 2 above were repeated for 4-OH-MiPT, 4-HO-DMT and 5-HO-DMT
Below is the corresponding data for 4-OH-MiPT.

[2] = Glycosylation of 4-HO-MET by GLY enzymes (UDP-glucose), LC-UV/MS; settings: 0.5 mM 4-OH-MET, 1.25 mM UDP-glucose, 25% (v/v) GLY enzyme, 24 h at 30° C.; estimate from UV peak areas
Method: 4-HO-MET was dissolved in 100% (v/v) DMSO to a concentration of 10 mM. The solution was stored at −20° C. prior to use.
FastAP phosphatase (1 U/uL) from ThermoFisher Scientific (catalog no. EF0651).
GLY enzyme suspensions contain 10 mM Tris-HCl at pH7.4, 250 mM imidazole and 50% (v/v) glycerol.
as §1, §2, §3, §4
As standard, 4-HO-MET solutions at a concentrations of 500, 250, 125, 62.5, and 31.25 uM were prepared from the 10 mM stock and used for caliboration.
A representative example of the chromatograms obtained with a wavelength of 268 nm for the standard solutions resuspended in the reaction buffer, and the corresponding MS-SIM signal, is shown in FIG. 16. The peak corresponding to 4-HO-MET is indicated.
When analyzing the GLY reactions, 30 of them gave an additional peak with retention time 2.2 min (i.e. in the expected region for a 4-HO-MET glucoside) and molecular mass compatible with the expected glucoside product, together with a corresponding decrease in substrate concentration, compared to the no-enzyme controls.
The method was repeated using various GLY enzymes to produce 4-HO-MET glucosides.
as §5

[3] = Glycosylation of 4-OH-DMT by GLY enzymes (UDP-glucose), LC-UV/MS; settings: conditions of Examples 1 and 2 repeated for 4-HO-DMT; estimate from UV peak areas
Method: as §1, §2, §3, §4, §5, §6
Below is the corresponding data for 4-OH-DMT and 5-HO-DMT.

[4] = Glycosylation of 4-OH-EPT by GLY enzymes (UDP-glucose), LC-UV/MS; settings: conditions of Examples 1 and 2 repeated for 4-OH-EPT; estimate from UV peak areas
Method: as §1, §2, §3, §4, §5
The experiments described in Examples 1 and 2 above were repeated for 4-OH-EPT.
Below is the corresponding data for 4-OH-EPT.

Molecule | 4-OH-MiPT GLY % (percentage of converted 4-OH-MiPT) [1] | 4-OH-MET GLY % (percentage of converted 4-HO-MET) [2] | 4-OH-DMT GLY % [3] | 4-OH-EPT GLY % (percentage of converted 4-OH-EPT) [4]
GLY169: glycosyltransferase (UGT), SEQ ID NO: 26 (protein) MKKPELIFIPAPGVGHVISALEFAARLLGHDPRISITVLAIKAPFSSHLDAYTKSLVASQPRIALIDLPPVDPPPPELLRSVEHYVTVYIESYIPHVQRAVGEIQSSRSDSGSDRSVAGFVLDFFCTSMIDVADGFSLPSYIYLTSNAHFLDLMFHLPARHDQIGREARLSDPDLPLPNFANPVPVSVLPSAVLDGEAGGYAAYVKLARRFRDVRGIMVNTFMELERSALGSFSGGSWDGPAVYAVGPVIDPKGVPDPSLDRAHWEKIREWLDEQPPSSVVFLCFGSLGSFDADQVKEIASGIERSGHKFLWSLRPESSQSQLPVGFLERMRGRGIICGWTPQVEVLGHAAIGGFVSHCGWNSILESLWYGVPIVTWPIYAEQQLNAFTMVKELGLAVELRLDYKGQGIGGHLVPAEEIEKAVGRLMGDDAAETRKKVREMREAARNAVKEGGSSYDSIGRLIQDFINSIE | 71.5% | 52.3% | 25.0% | 33%
GLY73: glycosyltransferase (UGT), SEQ ID NO: 4 (protein) MEDAIVLYPSPGRGHLISMVELGKLILKNHPSFSITILILSEPNTNANSTAPNYVASSTTEYITTVNSTTPSITFHHLPPISEVPPSTSSFVELSYLIPRFNNQNLHQILKTISQTSKLKAFIIDFFCDAAFEVATNLDIPTYYFFTSGACYLAALLYRPTLHKKVDKSLKDLGNTLLDIPGLPPIQASDLPEPWKDRTSKEYQYSLNVAAHMAKSNGLLVNTFDLLETKAIKAISGGLCVPDRTTPPIFCIGPLISDSNQDVEDHECLNWLNSQPSRSVVFLCFGSLGLFSAKQLKEIAVGLENSGQRFLWVLRNPPSDNDKDPNLDELLPKGFLERTKEKGFVVKQWAPQVAVLRHDSVGGFVTHCGWNSVLEAVWCRVPMVGWPLYAEQRLNSVVLVEEIKLASGLNESEDGLVSAAELEKRVKELMDSEVGTEVRERVSGLRDEAVTAVKEGGSSHVALAKLAELWRQN |  | 7.4% | 14.0% | 
GLY164: glycosyltransferase (UGT), SEQ ID NO: 24 (protein) MKEKAELVFIPSPSVGHLVSVIVFAKRLLLLDRDNAAGSNNSFSITVLVMQEHTATASDNDAHIKSLAGAGATADVSIRFIGVPKMNPPPLDYFKSPEKFITEYVDSHKDCIKEAIIEHVLNNNVKIAGLVLDFFCSSMIDTANELGVPSYVFFTSGAAFLGFVLHLPTRGGEEFEESEADSADIFTYANPVPYRVLPSLCFNKHGGFSAFENFGRRFKETKGIIVNTFEELESHAVEYLMKCDGVPPVYNVGPMIDLHGDIHARPRGGGTQRDEIIRWLDDQPASSVVFLCFGSMGSFGEEQIKEVASGLGKSGVRFLWSLRKTPPKDRPEMPGEYTCVEDILPRGFQERSKGRGMICGWAPQKEVLAHSAIGGFVSHCGWNSILESVWFGVPIVTWPIYAEQQINAFQMVRDLGLAVELRLDYRRGTENHVMADELARAVGCVMDGDSEVRKRVKEVSEKARLALRDGGSSYAATGRLIEDLFGSVS |  | 10.2% |  | 
GLY146: glycosyltransferase (UGT), SEQ ID NO: 18 (protein) MKKSELVFIPAPGIGHLVSALEFAKRLIDHDDRHSITVLSMKFPFTPFADEFTKSLVASHHGIQVIDLPPVDPPPPELLNSPENFVCAFIESLIPHVRNTLTDMLSSSSRVSGLVLDFFCLSLIDVGNELGVPSYMFLTSNSGFLGLMLHIPIRHNQKSAEFEESDAEVSLPGFWNPVPVSVLPGAVFDKDGGYSAYLKLAKRFRDTKGIIVNTFSELELDSVKSLSDGETPPVYMVGPVIDLKGQPNPSLDQAQREKIMHWLDDQPESSVVYLCFGSMGTFGAIQLREIATGLERSGHRFLWSMRVPQPAKGPDDILPEGFSERIGGRGLICGWAPQMEVLAHKAIKGFVSHCGWNSILESLWFGVPIATWPIYAEQQMNAFRMVKEFGLAVEMKLDYRLGDLVMADEIEIAVRRLMDDSDELRKKVKEMGEMARQAIIEGGSSYIAVGQLIEDILGSISCDN | 23.2% |  |  | 5.3%
GLY77: glycosyltransferase (UGT), SEQ ID NO: 8 (protein) MSTSELVFIPSPGAGHLPPTVELAKLLLHRDQRLSVTIIVMNLWLGPKHNTEARPCVPSLRFVDIPCDESTMALISPNTFISAFVEHHKPRVRDIVRGIIESDSVRLAGFVLDMFCMPMSDVANEFGVPSYNYFTSGAATLGLMFHLQWKRDHEGYDATELKNSDTELSVPSYVNPVPAKVLPEVVLDKEGGSKMFLDLAERIRESKGIIVNSCQAIERHALEYLSSNNNGIPPVFPVGPILNLENKKDDAKTDEIMRWLNEQPESSVVFLCFGSMGSFNEKQVKEIAVAIERSGHRFLWSLRRPTPKEKIEFPKEYENLEEVLPEGFLKRTSSIGKVIGWAPQMAVLSHPSVGGFVSHCGWNSTLESMWCGVPMAAWPLYAEQTLNAFLLVVELGLAAEIRMDYRTDTKAGYDGGMEVTVEEIEDGIRKLMSDGEIRNKVKDVKEKSRAAVVEGGSSYASIGKFIEHVSNVTI | 85% | 66.5% | 30.2% | 66.2%
GLY108: glycosyltransferase (UGT), SEQ ID NO: 14 (protein) MGSQQEHIVMLPFMAQGHIIPFLALAKQIQQRTGFTITIANTPLNIQYLRTTISTSDDSSRPCIRLAELPFCSSDHGLPPNTENTEALSFHQIVDLFHASKTLQAPFHSLVSGIIEKEGRPPLCIISDVFFGWATEVAKSLGTSNVTFTTGGGYGTAAYISLWQNLPHRATDSDYFALPGFPDSCRFHITQLHQYLRAADGTDAWSRYFQPQIALSLDSSGWLCNTAEEIEPHGLEILRNYVKPPVWTIGPLLPPALLNHSLSSGSSIFGQRAWKVSGVSPEKCLDWLDKHPQSSVLYISFGSQNTISPSQMMELALGLEDSGKPFIWVIRPPVGFDIEGEFRAEWLPQNFEQRMAESNQGLIVHKWAPQLEILSHKSTGVFLSHCGWNSVMESLCVGVPIIGWPLAAEQCYNSKMLTEDMGVAVELTRGRQGALERKEVKRVIELVMDSKGKGEEMKKKATEIGEKIRDAMREGGSSLKAMDDFVSTMLSKRQGY |  | 8.7% |  | 
GLY119: glycosyltransferase (UGT), SEQ ID NO: 16 (protein) MGSLGHQLHIFFLPFFAHGHMIPSVDMAKLFASRGIKTTIITTPLNAPFFSKTIQKTKELGFDINILTIKFPAAEAGLPEGYENTDAFIFSENAREMTIKFIKATTFLQAPFEKVLQECHPDCIVADVFFPWATDAAAKFGIPRLVFHGTSNFALSASECVRLYEPHKKVSSDSEPFVVPDLPGDIKLTKKQLPDDVRENVENDFSKFLKASKEAELRSFGVVVNSFYELEPAYADYYKKVLGRRAWNVGPVSLCNRDTEDKAGRGKETSIDHHECLKWLDSKKPNSVVYICFGSTTNFSDSQLKEIAAGLEASGQQFIWVVRRNKKGQEDKEDWLPEGFEERMEGVGLIIRGWAPQVLILDHEAIGAFVTHCGWNSTLEGITAGKPMVTWPIFAEQFYNEKLVTDVLKTGVGVGVKEWFRVHGDHVKSEAVEKTITQIMVGEEAEEMRSRAKKLGETARKAVEEGGSSYSDFNALIEELRWRRP |  | 6% |  | 
